# Legend:
# [1] = Lysozyme binding to calcium phosphate particles (UV 280 nm); format: physicochemical; conditions: pH 6.83
# Description: • Calcium phosphate particles • Lysozyme, MP biomedicals LLC. Product No. ICN10083405 • Phosphoric acid, Fisher Scientific, Product No. A260500 Methods: • i. 364.7 mg of Lysozyme as dissolved in 18.01 ml of water (20.25 mg/ml). • ii. 0.8 g of calcium phosphate particles were mixed with 4 ml of water, and the pH of the suspension was adjusted to neutral with diluted phosphoric acid. • iii. 4 ml of Lysozyme solution (20.25 mg/ml) was added to the suspension of calcium phosphate particles to achieve a final concentration of 10.124 mg/ml, and a final volume of 8 ml. The final pH was measured. • iv. The suspension was mixed for 30 min, and centrifuged at 2000×g for 10 min in a bench top centrifuge. • v. The absorbance of supernatant was measured at 280 nm (the detection wavelength for Lysozyme) by UV spectrophotometer. • vi. […]
# [2] = pH dependent release of lysozyme from lysozyme calcium phosphate complexes; format: physicochemical; conditions: flow 1 mL/hr, 8 hours
# Description: In the stratum corneum, the pH ranges from approximately 4.3 to 5.0 with pH […] with stratum corneum depth. To study calcium phosphate particle release active agent at conditions analogous to skin, two lysozyme calcium phosphate complexes were exposed to buffers of ph 4.8 (0.5 M sodium acetate) and 7.0 (10 mM Bis Tris) for 8 hours. The buffers flowed through the samples at a rate of 1 mL/hr and were collected hourly and analyzed for lysozyme release by monitoring the peak at 280 nm by UV spectrometer. An equivalent mass of lysozyme Calcium phosphate particles complex was vortexed in pH 4.8 buffer to estimate the total available lysozyme in the sample.
# [3] = Tape-stripping analysis of topical application of active-calcium phosphate complexes; format: in vivo; conditions: lysozyme-calcium phosphate particle formulation, human forearm, ten tape strips
# Description: The purpose of this study was to detect the distribution of actives in the stratum corneum following topical application of the active-calcium phosphate particles • Method: The distribution of STAY C50 within the stratum corneum was assessed by serial tape stripping of the skin to which a STAY C50-calcium phosphate particle formulation was applied. An application site on the forearm of a human subject was marked and 200 μl of the formulation spread by spatula. The site was allowed to dry for 10 minutes and then followed by ten pre-weighed tape stripping using strips of (3 in^2) applied to the application site. STAY C50 was extracted from the tape strips by sonicating the samples in water for 30 minutes and analyzing the samples by HPLC. […] An application site on the forearm of a human subject was marked and 200 μl of the formulation spread by spatula. The site was allowed to dry for 10 minutes and then followed by ten pre-weighed tape stripping using strips of (3 in^2) applied to the application site. Lysozyme was extracted from the tape strips by sonicating the samples in water for 30 minutes and analyzing the samples by HPLC. Lysozyme was detected to a depth of 6 tape strips (FIG. 10). 5. Controlled Slow Release of Active Agents by Franz Cell • Purpose: The purpose of this study was to detect riboflavin from riboflavin attached to calcium phosphate particles. […]
substance,measurement,setting,value
"Lysozyme: Lysozyme, MP biomedicals LLC",Lysozyme bound to calcium phosphate particles,[1],6.8 mg/g
same,lysozyme release from calcium phosphate particles,[2]; pH 4.8 (0.5 M sodium acetate),most of the lysozyme releasing within the first hour
same,lysozyme release from calcium phosphate particles,[2]; pH 7.0 (10 mM Bis Tris),no lysozyme is observed released
same,depth of detection,[3],6 tape strips
